Results as given in US20230279126A1 (published 2023).
Residue numbers refer to the chain shown, from its start.

T1: extracellular domain of mouse IL12RB1 (mIL12Rb1 ECD) (mouse, UniProt Q60837 20-565)
T1 construct: The immunogen was a fusion of the ECD with the human IgG1 hinge and Fc; also called mIL12Rb1 ECD antigen
T1 sequence: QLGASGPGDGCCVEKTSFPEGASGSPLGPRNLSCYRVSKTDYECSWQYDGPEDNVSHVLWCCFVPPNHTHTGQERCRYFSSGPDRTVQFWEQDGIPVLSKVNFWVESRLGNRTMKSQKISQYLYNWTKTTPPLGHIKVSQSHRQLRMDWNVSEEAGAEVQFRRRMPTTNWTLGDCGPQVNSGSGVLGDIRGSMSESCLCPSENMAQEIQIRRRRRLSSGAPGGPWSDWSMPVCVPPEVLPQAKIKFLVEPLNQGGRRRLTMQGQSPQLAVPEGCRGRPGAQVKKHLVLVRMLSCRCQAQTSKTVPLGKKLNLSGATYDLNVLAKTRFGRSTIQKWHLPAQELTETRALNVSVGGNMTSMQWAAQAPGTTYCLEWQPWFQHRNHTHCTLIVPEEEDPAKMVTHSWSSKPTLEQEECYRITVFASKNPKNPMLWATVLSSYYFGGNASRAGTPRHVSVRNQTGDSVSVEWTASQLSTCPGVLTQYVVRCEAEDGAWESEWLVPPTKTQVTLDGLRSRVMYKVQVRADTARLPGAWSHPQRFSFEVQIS

B1: hIL12Rb1_VHH10 (VHH)
VHH: QVQLQESGGGSVQAGGSLRLSCAVSGYDYCGYDVRWYRQAPGKEREFVSGIDSDGSTSYADSVKGRFTISQDNAENTSYLHMFSLKPEDTAMYYCKTESPAGESAWCRNFRGMDYWGKGTQVTVSS
notes: Phagemid clone with his-tag, periplasmic extract
B2: hIL12Rb1_VHH7 (VHH)
VHH: B1 VHH with Q39R
notes: as for B1
B3: hIL12Rb1_VHH14 (VHH)
VHH: B1 VHH with Q39R
notes: as for B1
B4: hIL12Rb1_VHH15 (VHH)
VHH: B1 VHH with D52N
notes: as for B1
B5: hIL12Rb1_VHH19 (VHH)
VHH: B1 VHH with D52N, S99G
notes: as for B1
B6: hIL12Rb1_VHH11 (VHH)
VHH: B1 VHH
notes: as for B1
B7: hIL12Rb1_VHH22 (VHH)
VHH: QVQLQESGGGSVQAGGSLRLSCTASGYTYSSAFMAWFRQAPGKEREGVAAIYTRDGGTVYADSVKGRFTISQDNAKNTLYLQMNSLKAEDTAMYYCAAKIPQPGRASLLDSQTYDYWGQGTQVTVSS
notes: as for B1
B8: hIL12Rb1_VHH2 (VHH)
VHH: B7 VHH with T78I
notes: as for B1
B9: hIL12Rb1_VHH12 (VHH)
VHH: B7 VHH with A88P, I100M
notes: as for B1
B10: hIL12Rb1_VHH16 (VHH)
VHH: B7 VHH with I51M, M83I, N84H, S85T
notes: as for B1
B11: hIL12Rb1_VHH20 (VHH)
VHH: B7 VHH with G57S, T58P, V64L, Y80H, A88P, Q102E, A106I, Q119H
notes: as for B1
B12: hIL12Rb1_VHH21 (VHH)
VHH: B7 VHH with I51M, A88T
notes: as for B1
B13: hIL12Rb1_VHH17 (VHH)
VHH: QVQLQESGGGSVQAGGFLRLSCVASGYGYCGYDMSWYRQVPGKEREFVALITSDRSVSYEDSVKGRFSISRDNAKNTAYLEMNRLTPDDTAIYYCKTSTAARENNWCRSRYRIASWGQGTQVTVSS
notes: as for B1
B14: hIL12Rb1_VHH4 (VHH)
VHH: QVQLQESGGGSVQAGGSLRLSCVASGYGYCGYDMSWYRQTPGKEREFVALITSDRIASYEDSVKGRFIISRDNAKNTGYLDMTRVTPDDTAIYYCKTSAAARENSWCRSRYRVASWGQGTQVTVSS
notes: as for B1
B15: hIL12Rb1_VHH5 (VHH)
VHH: B13 VHH with I92V, S115Y
notes: as for B1
B16: hIL12Rb1_VHH13 (VHH)
VHH: B13 VHH with V40A, D54E, S56V, V57I, K75E, A78G, T99A, N104S, N105S, I113V
notes: as for B1
B17: hIL12Rb1_VHH6 (VHH)
VHH: QVQLQESGGGSVQAGGSLRLSCAASRYTYTNNFMAWFRQAPGKEREGVAAIYTGDGYAYYFYSVKGRFTISQDNDENMLYLQMNSLKPEDTAMYYCAAMERRIGTRRMTENAEYKYWGQGTQVTVSS
notes: as for B1
B18: hIL12Rb1_VHH18 (VHH)
VHH: B17 VHH with Y62D, E76K, I103S, T105R
notes: as for B1
B19: mIL12Rb1_VHH1 (VHH)
VHH: B7 VHH
notes: as for B1
B20: mIL12Rb1_VHH6 (VHH)
VHH: B7 VHH with G57S, T58P, V64L, Y80H, A88P, Q102E, A106I, Q119H
notes: as for B1
B21: mIL12Rb1_VHH17 (VHH)
VHH: B7 VHH with I51M, M83I, N84H, S85T
notes: as for B1
B22: mIL12Rb1_VHH18 (VHH)
VHH: B7 VHH with I51M, A88T
notes: as for B1
B23: mIL12Rb1_VHH22 (VHH)
VHH: B7 VHH with T78I
notes: as for B1
B24: mIL12Rb1_VHH23 (VHH)
VHH: B7 VHH with A88P, I100M
notes: as for B1
B25: mIL12Rb1_VHH2 (VHH)
VHH: B1 VHH
notes: as for B1
B26: mIL12Rb1_VHH7 (VHH)
VHH: B1 VHH with Q39R
notes: as for B1
B27: mIL12Rb1_VHH16 (VHH)
VHH: B1 VHH with D52N, S99G
notes: as for B1
B28: mIL12Rb1_VHH21 (VHH)
VHH: B1 VHH with Q39R
notes: as for B1
B29: mIL12Rb1_VHH3 (VHH)
VHH: QVQLQESGGGSVQAGGSLRLSCVASGYSYCGYDMMWYRQAPGKEREFVALITSDYSIRYEDSVEGRFSISRDNAKNTGYLLMSNLTPADTAIYYCKTSTAARESSWCRSRYRVASWGQGTQVTVSS
notes: as for B1
B30: mIL12Rb1_VHH13 (VHH)
VHH: B29 VHH with S105G
notes: as for B1
B31: mIL12Rb1_VHH4 (VHH)
VHH: B17 VHH with Y62D, E76K, I103S, T105R
notes: as for B1
B32: mIL12Rb1_VHH12 (VHH)
VHH: B17 VHH
notes: as for B1
B33: mIL12Rb1_VHH5 (VHH)
VHH: QVQLQESGGGSVQAGETLRLSCTVSGFTIDDSEMGWYRQAPGHECELVASGSSDDDTYYVDSVKGRFTISLDNAKNMVYLQMNSLKPEDTAVYYCATGPTYPPKDGDCAHWGQGTQVTVSS
notes: as for B1
B34: hIL12Rb1_VHH3 (VHH)
VHH: B29 VHH
notes: as for B1
B35: hIL12Rb1_VHH9 (VHH)
VHH: B29 VHH with S105G
notes: as for B1
B36: mIL12Rb1_VHH19 (VHH)
VHH: B13 VHH
notes: as for B1
B37: mIL12Rb1_VHH8 (VHH)
VHH: B13 VHH with V40A, D54E, S56V, V57I, K75E, A78G, T99A, N104S, N105S, I113V
notes: as for B1
B38: hIL12Rb1_VHH8 (VHH)
VHH: B29 VHH
notes: as for B1

Key:
[1] = biological target: T2, extracellular domain of human IL12RB1 (hIL12Rb1 ECD) (human, UniProt P42701 24-545); test: periplasmic extract ELISA (PE-ELISA) of phage clones, colorimetric
T2 construct: The immunogen was a fusion of the ECD with the human IgG1 hinge and Fc; also called IL12Rβ1; CD212
Method in brief: (§1)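 VHH domains were obtained from camels immunized sequentially with human and mouse receptor extracellular domain–Fc fusion proteins, then cloned with a his-tag into a phagemid in E. coli. The phage library was panned over several rounds on the human or mouse extracellular domain, and single clones were checked for selective binding by colorimetric periplasmic extract ELISA.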

[2] = biological target: T1, extracellular domain of mouse IL12RB1 …; test: as above
Method in brief: as §1

Binder	binding result [1]	binding result [2]
B1	binds	–
B2	binds	–
B3	binds	–
B4	binds	–
B5	binds	–
B6	binds	–
B7	binds	–
B8	binds	–
B9	binds	–
B10	binds	–
B11	binds	–
B12	binds	–
B13	binds	–
B14	binds	–
B15	binds	–
B16	binds	–
B17	binds	–
B18	binds	–
B19	–	binds

Binder	binding result [1]	binding result [2]
B20	–	binds
B21	–	binds
B22	–	binds
B23	–	binds
B24	–	binds
B25	–	binds
B26	–	binds
B27	–	binds
B28	–	binds
B29	–	binds
B30	–	binds
B31	–	binds
B32	–	binds
B33	–	binds
B34	binds	–
B35	binds	–
B36	–	binds
B37	–	binds
B38	binds	–
